{"source": "paper PMC4493910", "about": "“Cryo-EM structure of the bacteriophage T4 portal protein assembly at near-atomic resolution” (Nature Communications, 2015)", "molecules": {"B1": {"name": "bacteriophage T4 vertex protein gp24 (natural protein, UniProt P19896 11-427, looked up)", "chain": "STTTNSNSIGRPNLVALTRATTKLIYSDIVATQRTNQPVAAFYGIKYLNPDNEFTFKTGATYAGEAGYVDREQITELTEESKLTLNKGDLFKYNNIVYKVLEDTPFATIEESDLELALQIAIVLLKVRLFSDAASTSKFESSDSEIADARFQINKWQTAVKSRKLKTGITVELAQDLEANGFDAPNFLEDLLATEMADEINKDILQSLITVSKRYKVTGITDSGFIDLSYASAPEAGRSLYRMVCEMVSHIQKESTYTATFCVASARAAAILAASGWLKHKPEDDKYLSQNAYGFLANGLPLYCDTNSPLDYVIVGVVENIGEKEIVGSIFYAPYTEGLDLDDPEHVGAFKVVVDPESLQPSIGLLVRYALSANPYTVAKDEKEARIIDGGDMDKMAGRSDLSVLLGVKLPKIIIDE", "notes": "capsid vertex protein gp24 of bacteriophage T4, as present in fully expanded heads; source: emptied prolate heads of a T4 gp13 amber mutant, purified"}}, "key": {"[1]": {"target": "gp20 mutant in which the tunnel loop (residues 377–388) had been deleted (bacteriophage T4)", "assay": "cryo-EM 2D classification of particles; oligomeric states counted in cryo-EM data of purified portals; gp20-N74 after a single gel filtration (narrow 500 μl fraction)"}, "[2]": {"target": "bacteriophage T4 portal protein gp20, construct gp20-N74 (residues 74–524) (bacteriophage T4) (UniProt P13334)", "assay": "cryo-EM 2D classification of particles; oligomeric states counted in cryo-EM data of purified portals; gp20-N74 after a single gel filtration (narrow 500 μl fraction)"}, "[3]": {"target": "bacteriophage T4 portal protein gp20, construct gp20-N74 (residues 74–524) (bacteriophage T4) (UniProt P13334)", "assay": "cryo-EM structure; single particles of gp20-N74 after two gel filtrations, 1 mg/ml in 20 mM Tris-HCl pH 7.8, 400 mM NaCl, 5 mM EDTA, 0.3% octyl-β-glucoside; 12-fold symmetry imposed, 3.6 Å"}, "[4]": {"target": "bacteriophage T4 major capsid protein gp23 (bacteriophage T4)", "assay": "cryo-EM structure; purified emptied prolate heads of a gp13 amber mutant in 50 mM Tris pH 7.5, 1 mM MgCl2, 100 mM NaCl; fivefold symmetry, 10 Å; gp20 structure and a gp23 model fitted into the map"}, "[5]": {"target": "the molecule itself", "assay": "cryo-EM structure; purified emptied prolate heads of a gp13 amber mutant in 50 mM Tris pH 7.5, 1 mM MgCl2, 100 mM NaCl; fivefold symmetry, 10 Å; gp20 structure and a gp23 model fitted into the map"}}}
{"molecule": "gp20 mutant in which the tunnel loop (residues 377–388) had been deleted (domain or fragment)", "values": [{"measurement": "percent of particles that are 11-mers", "setting": "[1]", "value": 28, "unit": "%"}, {"measurement": "percent of particles that are 13-mers", "setting": "[1]", "value": 4, "unit": "%"}]}
{"molecule": "bacteriophage T4 portal protein gp20, construct gp20-N74 (residues 74–524) (from UniProt P13334 74-524) (domain or fragment)", "values": [{"measurement": "percent of particles that are 11-mers", "setting": "[2]", "value": 0.1, "unit": "%"}, {"measurement": "percent of particles that are 12-mers", "setting": "[2]", "value": 90, "unit": "%"}, {"measurement": "percent of particles that are 13-mers", "setting": "[2]", "value": 9.9, "unit": "%"}, {"measurement": "percent of particles that are 12-mers", "setting": "[3]", "value": 95, "unit": "%"}, {"measurement": "percent of particles that are 13-mers", "setting": "[3]", "value": 5, "unit": "%"}, {"measurement": "stoichiometry N", "setting": "[3]", "value": 12}]}
{"molecule": "bacteriophage T4 major capsid protein gp23 (natural protein)", "values": [{"measurement": "stoichiometry N", "setting": "[4]", "value": 6}]}
{"molecule": "B1", "values": [{"measurement": "stoichiometry N", "setting": "[5]", "value": 5}]}
